Reference: the supplement of paper PMC9112550, “Optimization of the antimicrobial peptide Bac7 by deep mutational scanning” (BMC Biology, 2022)

System: Escherichia coli TOP10
Assay: shrunken log2 fold change of peptide-encoding DNA abundance (4.5 h post-induction vs induction); higher = less antimicrobial activity (less host growth inhibition)
Conditions: time post-induction: 4.5 h; library: site-saturation at positions 5, 18, 19, 20
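Further: peptides expressed intracellularly from a pBAD plasmid library in pooled LB shake-flask culture, induced with 0.3% L-arabinose, DNA abundance read by NGS, three biological replicates, DESeq2 with apeglm shrinkage.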

| Sequence | shrunken log2 fold change |
| --- | --- |
| RRIRTRPPRLPRPRPRPWVQPRP | -0.0274 |
| RRIRKRPPRLPRPRPRPHKEPRP | -0.0849 |
| RRIRIRPPRLPRPRPRPNYQPRP | -0.43 |
| RRIRARPPRLPRPRPRPERYPRP | 0.0113 |
| RRIRPRPPRLPRPRPRPIDQPRP | -0.116 |
| RRIRPRPPRLPRPRPRPKHPPRP | 0.995 |
| RRIRGRPPRLPRPRPRPVWYPRP | 0.196 |
| RRIRGRPPRLPRPRPRPIMTPRP | 2.36 |
| RRIRKRPPRLPRPRPRPCRNPRP | -0.0611 |
| RRIRCRPPRLPRPRPRPPQPPRP | 0.858 |
| RRIRERPPRLPRPRPRPQTLPRP | -0.324 |
| RRIRVRPPRLPRPRPRPRCGPRP | -0.0269 |
| RRIRERPPRLPRPRPRPWIWPRP | 0.164 |
| RRIRARPPRLPRPRPRPDNSPRP | -0.269 |
| RRIRYRPPRLPRPRPRPHRSPRP | -0.017 |
| RRIRDRPPRLPRPRPRPCGWPRP | 0.335 |
| RRIRKRPPRLPRPRPRPHSAPRP | 0.246 |
| RRIRFRPPRLPRPRPRPEMSPRP | 0.000731 |
| RRIRPRPPRLPRPRPRPYGAPRP | -0.306 |
| RRIRARPPRLPRPRPRPLYVPRP | -0.0921 |
| RRIRVRPPRLPRPRPRPSSWPRP | -0.062 |
| RRIRERPPRLPRPRPRPIVFPRP | 0.0592 |

| Sequence | shrunken log2 fold change |
| --- | --- |
| RRIRWRPPRLPRPRPRPGDIPRP | -0.133 |
| RRIRHRPPRLPRPRPRPFGVPRP | -0.326 |
| RRIRMRPPRLPRPRPRPPNSPRP | 0.128 |
| RRIRPRPPRLPRPRPRPAYEPRP | 0.0834 |
| RRIRKRPPRLPRPRPRPAASPRP | 0.593 |
| RRIRCRPPRLPRPRPRPKEGPRP | 0.201 |
| RRIRNRPPRLPRPRPRPCYSPRP | -0.596 |
| RRIRLRPPRLPRPRPRPRIWPRP | 0.394 |
| RRIRYRPPRLPRPRPRPYKKPRP | -0.00195 |
| RRIRNRPPRLPRPRPRPILFPRP | -0.396 |
| RRIRYRPPRLPRPRPRPFHHPRP | -1.19 |
| RRIRYRPPRLPRPRPRPVAQPRP | 0.128 |
| RRIRIRPPRLPRPRPRPQLTPRP | -0.28 |
| RRIRARPPRLPRPRPRPRRKPRP | 0.644 |
| RRIRHRPPRLPRPRPRPHPEPRP | 0.0129 |
| RRIRTRPPRLPRPRPRPGTRPRP | 0.2 |
| RRIRNRPPRLPRPRPRPKSNPRP | -0.294 |
| RRIRERPPRLPRPRPRPAFSPRP | 0.122 |
| RRIRMRPPRLPRPRPRPWWAPRP | -0.0423 |
| RRIRERPPRLPRPRPRPITDPRP | -0.00102 |
| RRIRNRPPRLPRPRPRPYYVPRP | -0.207 |
| RRIRMRPPRLPRPRPRPNDSPRP | -0.0147 |

| Sequence | shrunken log2 fold change |
| --- | --- |
| RRIRVRPPRLPRPRPRPCINPRP | 0.0189 |
| RRIRSRPPRLPRPRPRPDSIPRP | 0.0681 |
| RRIRPRPPRLPRPRPRPVYWPRP | -0.139 |
| RRIRDRPPRLPRPRPRPFESPRP | -0.00133 |
| RRIRERPPRLPRPRPRPHMNPRP | -0.337 |
| RRIRKRPPRLPRPRPRPPVEPRP | 0.13 |
| RRIRLRPPRLPRPRPRPKMEPRP | -0.0157 |
| RRIRHRPPRLPRPRPRPPTKPRP | 0.161 |
| RRIRARPPRLPRPRPRPRDPPRP | 0.948 |
| RRIRDRPPRLPRPRPRPCMNPRP | 0.119 |
| RRIRNRPPRLPRPRPRPRRFPRP | 0.0247 |
| RRIRRRPPRLPRPRPRPACPPRP | 0.353 |
| RRIRPRPPRLPRPRPRPMALPRP | -0.0509 |
| RRIRMRPPRLPRPRPRPSAVPRP | 1.16 |
| RRIRIRPPRLPRPRPRPAGRPRP | 0.132 |
| RRIRNRPPRLPRPRPRPYHRPRP | -0.121 |
| RRIRNRPPRLPRPRPRPSVYPRP | -0.172 |
| RRIRVRPPRLPRPRPRPCMQPRP | 0.162 |
| RRIRKRPPRLPRPRPRPAFPPRP | 0.165 |
| RRIRLRPPRLPRPRPRPRYIPRP | -0.683 |
| RRIRMRPPRLPRPRPRPAQPPRP | 0.586 |
| RRIRQRPPRLPRPRPRPMAQPRP | 0.006 |

| Sequence | shrunken log2 fold change |
| --- | --- |
| RRIRPRPPRLPRPRPRPGGSPRP | 0.166 |
| RRIRLRPPRLPRPRPRPAPWPRP | 0.354 |
| RRIRCRPPRLPRPRPRPIIDPRP | -0.323 |
| RRIRKRPPRLPRPRPRPKCAPRP | 0.283 |
| RRIRIRPPRLPRPRPRPAMLPRP | -0.22 |
| RRIRARPPRLPRPRPRPFNNPRP | -0.688 |
| RRIRARPPRLPRPRPRPHCRPRP | -0.0687 |
| RRIRMRPPRLPRPRPRPDHWPRP | 0.617 |
| RRIRARPPRLPRPRPRPDKHPRP | -0.0889 |
| RRIRIRPPRLPRPRPRPNRPPRP | -0.212 |
| RRIRYRPPRLPRPRPRPEILPRP | -0.288 |
| RRIRSRPPRLPRPRPRPRVYPRP | -0.348 |
| RRIRHRPPRLPRPRPRPPWKPRP | 0.174 |
| RRIRNRPPRLPRPRPRPQICPRP | -0.0199 |
| RRIRYRPPRLPRPRPRPSPKPRP | -0.105 |
| RRIRVRPPRLPRPRPRPCTQPRP | -0.322 |
| RRIRYRPPRLPRPRPRPCTIPRP | -0.118 |
| RRIRQRPPRLPRPRPRPAIDPRP | 0.0942 |
| RRIRCRPPRLPRPRPRPCMKPRP | -0.368 |
| RRIRARPPRLPRPRPRPMHGPRP | 0.311 |
| RRIRCRPPRLPRPRPRPHHPPRP | -0.37 |
| RRIRVRPPRLPRPRPRPQKSPRP | -0.162 |

| Sequence | shrunken log2 fold change |
| --- | --- |
| RRIRCRPPRLPRPRPRPTYMPRP | -0.432 |
| RRIRCRPPRLPRPRPRPEYDPRP | -0.173 |
| RRIRCRPPRLPRPRPRPVKWPRP | -0.24 |
| RRIRCRPPRLPRPRPRPRDTPRP | 0.0379 |
| RRIRVRPPRLPRPRPRPHHPPRP | -0.131 |
| RRIRSRPPRLPRPRPRPFYTPRP | -0.903 |
| RRIRSRPPRLPRPRPRPTCQPRP | 0.0682 |
| RRIRTRPPRLPRPRPRPVRPPRP | 0.779 |
| RRIRMRPPRLPRPRPRPWSIPRP | -0.0237 |
| RRIRYRPPRLPRPRPRPNKVPRP | -0.596 |
| RRIRGRPPRLPRPRPRPYEPPRP | 0.0834 |
| RRIRSRPPRLPRPRPRPTAIPRP | -0.0172 |
| RRIRMRPPRLPRPRPRPHCEPRP | -0.0828 |
| RRIRRRPPRLPRPRPRPCFFPRP | 0.0648 |
| RRIRQRPPRLPRPRPRPCYKPRP | -0.271 |
| RRIRKRPPRLPRPRPRPWPHPRP | 0.298 |
| RRIRERPPRLPRPRPRPWCWPRP | 0.315 |
| RRIRTRPPRLPRPRPRPLCKPRP | -0.257 |
| RRIRGRPPRLPRPRPRPCEWPRP | -0.01 |
| RRIRVRPPRLPRPRPRPPNWPRP | 0.293 |
| RRIRMRPPRLPRPRPRPIQIPRP | -0.155 |
